Assay results from the supplement of paper PMC12764529.
± gives the half width of the 95% confidence interval.

How the values were obtained:
[1] = folding stability dG unfold (combined trypsin and chymotrypsin); higher = more stable
Summary of the method: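 Designed mini-proteins (under 80 residues, no cysteine) in a PA-tagged cDNA display construct were digested with trypsin and chymotrypsin. Each protease was used at 11 concentrations (threefold dilutions) plus a no-protease condition, followed by sequencing. K50 was inferred by Bayesian fitting of sequencing counts, and unfolding free energy was derived against a sequence-predicted unfolded-state K50 and a shared folded-state K50, per protease or combined. Only designs with AlphaFold2 dimer inter-PAE above 15 were kept.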

[2] = folding stability dG unfold from chymotrypsin proteolysis; higher = more stable
Experimental: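 Folding stability of de novo designed mini-proteins (<80 aa, no Cys; designed by TrROS, TrMRF, ProteinMPNN and the joint model) was measured by cDNA display proteolysis with trypsin and chymotrypsin. Each protease was used at 11 concentrations in a threefold dilution series plus a no-protease condition. K50 was inferred by Bayesian fitting of sequencing counts, and dG unfold was derived against a sequence-predicted unfolded-state K50 (Tsuboyama et al. method). Sequences shown include variable-length N-terminal GS-type padding (SAGGSAGG...) inside a display construct carrying a PA tag. Rows were kept only if the AF2 dimer inter-PAE was >15, to exclude likely homo-oligomers.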

| Sequence | folding stability dG unfold [1] | folding stability dG unfold [2] |
| --- | --- | --- |
| SAGGSNKNSPEDQKRKQQPPQPKVRTIPGPLSEDQIKNLLDNGQPIIIEGPDGEWWVIKNNEIEPISAGGSA [r2_33_TrROS] | -0.0552 ± 0.24 kcal/mol | 0.255 ± 0.14 kcal/mol |
| SAGGSAGGSAGPTITYHPDGRVRIDLHLPNGELLDTGVITPDEAVRLLLETGVRLRTIRPSAGGSAGGSAGG [r11_521_TrMRF] | 0.166 ± 0.19 kcal/mol | 0.662 ± 0.11 kcal/mol |
| SAGGSAMTPQTLTLPDGTQVTVYYDPSTGKYTITTTTTTPTAQGTGPTTTTTKTVDSEEELLAYLSSAGGSA [r15_31_JUSTAS] | 4.5 ± 0.2 kcal/mol | 4.37 ± 0.13 kcal/mol |
| SAPAVETRSVTTEPVASPTPRVPYTLVVESVTTTAVDAAGTPVATSVSLKEVRYGDGTISRTFSATPTASAG [r14_848_JUSTAS] | < -1 kcal/mol | -0.953 ± 0.29 kcal/mol |
| SAGMITRTITTVDPVDPALVAAISPDLVFPDGSTVSRDGDRLVITTPVTLALPPSPDPAGQLVLPTAASAGG [r19_148_JUSTAS] | -0.00544 ± 0.17 kcal/mol | 0.483 ± 0.087 kcal/mol |
| SAGGSAGGMIRTYELPETGEVRVLIRTPNPEEAEALAAEVRAELAAAGLDVPVEISPGPASALDSAGGSAGG [r6_641_JUSTAS] | 0.283 ± 0.18 kcal/mol | 0.703 ± 0.2 kcal/mol |
| SSTTPYGDKTVVTTTTPVPGAGKELVTTTTYTFTPDPNSASTSTTATTTTTVTPLPEEAPTPEAVALRRASA [r9_363_JUSTAS] | < -1 kcal/mol | -0.937 ± 0.44 kcal/mol |
| SAGGSAGGSMVVTERSVRPVPRLVRTSDPSTGSSSVHLDPGAVETVRVIEEPPTPELLANTGASAGGSAGGS [r20_172_JUSTAS] | < -1 kcal/mol | -1.36 ± 0.33 kcal/mol |
| SAGGVIGTRKKVNKIEKPVPEGATTTPSIIGNTTILTTTAPDGSTVTVTLTKTEPIPGKPDVSEKYEASAGG [r13_804_JUSTAS] | -0.265 ± 0.12 kcal/mol | 0.11 ± 0.042 kcal/mol |
| SAGGSAGGSAGGMPAEEVQNIIEEQGFDGPNQTVTIDVPDGRRVKIEMPPNGMKLEVEDSAGGSAGGSAGGS [r10_604_TrROS] | -0.538 ± 0.31 kcal/mol | 0.0665 ± 0.081 kcal/mol |
| SAGGGMSLTTTTLTFSIDEVDPEELYEELSKKGVTVYSGGKPSNPEEGMEALLKAHPNSSYTVLTRLSAGGS [r8_38_JUSTAS] | < -1 kcal/mol | -0.483 ± 0.54 kcal/mol |
| SAGGSAGGPIRIDPEDGRIRNNGQPYKFDKIEDIEPNENNKSIRLTIRMKNGKEHKQPIPADDISAGGSAGG [r6_682_TrROS] | < -1 kcal/mol | -0.759 ± 1 kcal/mol |
| SAKVHIPFPPGMPPKQMRNMVKNALREQQNNGKEPDKITIHMPPDQRPIKDWLKEAGLPPDNVKWEPWPSAG [r14_589_TrROS] | < -1 kcal/mol | -0.422 ± 0.55 kcal/mol |
| SAGGSAGGSAKTVEIPLKDLKPDKDGKYNYDEIQDQIKEKFPPNGIDKVDIDTPRQIWDQFRSAGGSAGGSA [r18_72_TrROS] | -0.329 ± 0.42 kcal/mol | 0.157 ± 0.21 kcal/mol |
| SAGGSAGGSAMGPPVRRVTITLSDGTRYEVDVAPDDSVAAVRAPLAAHPDVAAVTELTVEPSAGGSAGGSAG [r3_308_JUSTAS] | 0.282 ± 0.084 kcal/mol | 0.99 ± 0.044 kcal/mol |
| SAGMSSTPQKIVRTTGSTPLPDGSAVSTTTTTYSDGSSTVTTAIPGGLETRATVPPDGTVTTTTAPLLGSAG [r5_168_JUSTAS] | -0.422 ± 0.26 kcal/mol | -0.248 ± 0.23 kcal/mol |
| SMEFTIEVYDPVTPKVETFPVKAPKEKVIEKIREFQEKGGKVVLSGLPEEKVKEIVEEAGVDVEIVPVEKSA [r9_1207_TrMRF] | 0.283 ± 0.19 kcal/mol | 0.54 ± 0.09 kcal/mol |
| SAGGSAGGSTVEELKKKAKELGLEVTVEKNKKDKKKITITVSEEAKKKLKEIAKEENIKVEIKSAGGSAGGS [r12_74_TrROS_Hall] | -0.473 ± 0.47 kcal/mol | 0.0632 ± 0.051 kcal/mol |
| SAGGSAGGSAGSEVEKARNAALEARRAGVEEVTITMPEELKEKVTALAKEEGINLKIESESAGGSAGGSAGG [r11_371_JUSTAS] | -0.351 ± 0.36 kcal/mol | 0.0457 ± 0.19 kcal/mol |
| SAGGSAGGSAGGSVEIRDARIELGDNTLRIEISFPDGGTRRIEIEVEPVPPLPPSLLDRSAGGSAGGSAGGS [r4_372_TrMRF] | < -1 kcal/mol | 0.109 ± 0.11 kcal/mol |
| SAGNPSLKLKTETQVEVTEVSESVLPDGGYTLTKSKFTVTTTIYDTTKPKVLSTETTEETETVATPLVSAGG [r19_136_JUSTAS] | 0.0701 ± 0.07 kcal/mol | 0.442 ± 0.11 kcal/mol |
| SAGGSAGGSAGGVRPNPNGQYEVTVTIRNPGGGNKREKTINATPDEIEELQDQGFEIEPSAGGSAGGSAGGS [r10_749_TrROS] | < -1 kcal/mol | -1.08 ± 0.35 kcal/mol |
| SAGGSAGGSAGIKKQRNPDGQERETIEIRTKNQPIPITFPPDDNADDLANNFGLPADDIRSAGGSAGGSAGG [r11_1039_TrROS] | 0.28 ± 0.079 kcal/mol | 0.682 ± 0.039 kcal/mol |
| SAGGEPGVSAEEAAERLRRELGLPGLERVLEVRLTRAVGDPAGRPPEAESLEVEVEVSPEVRERLAALSAGG [r13_552_JUSTAS] | 0.00798 ± 0.068 kcal/mol | 0.599 ± 0.051 kcal/mol |

| Sequence | folding stability dG unfold [1] | folding stability dG unfold [2] |
| --- | --- | --- |
| SAGGKKKKREIEIQIPVPDEEMKKNGMDPSEFAEELAKELQSLLPPGFEDIDLDVEPHPNGWPRIKIESAGG [r13_271_TrROS] | -0.724 ± 0.3 kcal/mol | -0.281 ± 0.043 kcal/mol |
| SAGGMEEIRELLREGKIDEVVERLKELGYEDVKITPIPDKPVVKIEVVRYDPVTGKPTKFTLTIPLEPSAGG [r13_359_TrMRF] | 5.67 ± 0.32 kcal/mol | 5.27 ± 0.11 kcal/mol |
| SAGGSMETTTLSSTPAELIATVEAEAAAAGKTISEITVTEDPATGLATVPVTIEITPAPALAPAARRSAGGS [r16_584_JUSTAS] | 0.249 ± 0.21 kcal/mol | 0.722 ± 0.065 kcal/mol |
| SAGGNIEIEIPIPKEDLKDNDFEEAKEYVREYVRMIAREQGLPPGFPIKDIDVQPHPNYYMVKIEIPSAGGS [r16_368_TrROS] | 0.401 ± 0.16 kcal/mol | 0.868 ± 0.26 kcal/mol |
| SAGGKPKITITIEKLPDGTIRITITYEDGSKVEIEAKVTYDPKTNTLTIEVTIKINGKTYKITITFKSAGGS [r16_391_TrROS_Hall] | 4.35 ± 0.68 kcal/mol | 4.4 ± 0.29 kcal/mol |
| SAGGEVPVSAEAAAAYDRAVAEGGGGATVPVETPGGRVIVYDPAGTATVLGDDPRTFPLAEVTAFAPSAGGS [r16_664_JUSTAS] | 0.246 ± 0.072 kcal/mol | 0.923 ± 0.059 kcal/mol |
| SAGGGMGSSMKAKVEEEIPELKAADSTKVEITVTVTETRSFALPGGELATTTTTTTKTLEVEVPEEESAGGS [r8_203_JUSTAS] | -0.217 ± 0.34 kcal/mol | 0.208 ± 0.26 kcal/mol |
| SAGGSAGGSAGMKVFIFKDPEKAIEAIKEFAGKNGVKYKIIEIETTPDGYVKIKVEFEPISAGGSAGGSAGG [r11_304_TrMRF] | 5.48 ± 0.25 kcal/mol | 5.31 ± 0.22 kcal/mol |
| SAGGSAGGSAGGSSSMTSEKVTEKTEFDKETGKKYKIITQRISPSSVGNSSLKTEIKLESAGGSAGGSAGGS [r10_535_JUSTAS] | -0.735 ± 0.61 kcal/mol | -0.0486 ± 0.25 kcal/mol |
| SAGGSAGGSADNPQVERTIHDPNGGFKVMINPNDNSIEIWPYKNDKPEPKTFDSPEALDDISAGGSAGGSAG [r3_426_TrROS] | -0.387 ± 0.29 kcal/mol | 0.136 ± 0.17 kcal/mol |
| SAGGSAGGSAGGSDSSVITFDIPVSEYPAKIKLSPETKTMTVVSTSPEGTVKVAIERPGSAGGSAGGSAGGS [r10_352_JUSTAS] | -0.889 ± 0.48 kcal/mol | -0.297 ± 0.14 kcal/mol |
| SAGGSAGGMTIPAEKIKGKPIKVLVDRGNAIFPLKEAKVKTKPDGRVELYVPKELGEDTKIIAGSAGGSAGG [r6_628_TrMRF] | < -1 kcal/mol | -0.573 ± 0.18 kcal/mol |
| SAGGSAMPSPITVTTFPGGTARLVEFPDGSTAVVEIVEEGPERVLVTTTTPPDGVPTTSVVPAAELSAGGSA [r15_941_JUSTAS] | -0.537 ± 0.21 kcal/mol | -0.0657 ± 0.072 kcal/mol |
| SAGGSAGGSGGMRVIRTKLEETEFFEETGESRTFEGLVIVEKEIYLPPYPRYPVFRFDEEKEASAGGSAGGS [r12_140_JUSTAS] | -0.526 ± 0.42 kcal/mol | -0.379 ± 0.41 kcal/mol |
| SAGGSAGGSAGMLNTTVTVSIPTPEGKVETITIPPGVPLEEAKAKVAEPRPGAEITEIVRVSAGGSAGGSAG [r3_60_JUSTAS] | 0.165 ± 0.21 kcal/mol | 0.764 ± 0.044 kcal/mol |
| SAGGSAGGSAGGAPVTVIPVKKDNPEVREKTAKELKEKAKEIDPSNIKITIEKGVVTLESAGGSAGGSAGGS [r10_182_JUSTAS] | -0.0644 ± 0.13 kcal/mol | 0.263 ± 0.049 kcal/mol |
| SAGGSAGGSAGGSKIEVYKEPNKITIVIHPGNKPLVFTATEPIPIETLIKKAREAFPDASAGGSAGGSAGGS [r4_191_TrMRF] | -0.0455 ± 0.13 kcal/mol | 0.516 ± 0.12 kcal/mol |
| SAGGSAGGMIVELPTPDDETLTLTTRPTPDGSVPVTATRLTPDSTEVTTVSTADPAVVELVAAASAGGSAGG [r6_607_JUSTAS] | < -1 kcal/mol | -0.448 ± 0.26 kcal/mol |
| SAGGSAGGSAGGSMETVEVTEVSFDPSKGTRFVKTTVTRKDEKGNWVEKEEWITEPVLGSAGGSAGGSAGGS [r4_85_JUSTAS] | -0.0805 ± 0.12 kcal/mol | 0.338 ± 0.059 kcal/mol |
| SAGGSAGGSATLTVEVLEEVVEPVPDPSLTPVRLLVRDPANGELREAVVIRDPRRGALRLESAGGSAGGSAG [r3_1_JUSTAS] | -0.488 ± 0.22 kcal/mol | 0.0495 ± 0.22 kcal/mol |
| SAGGSAGGSAGGMYSVTLTPVSSPDGELRLRAVYPELGLVRDFDPATGRPVRVVPAALLSAGGSAGGSAGGS [r10_589_JUSTAS] | -0.422 ± 0.26 kcal/mol | 0.411 ± 0.22 kcal/mol |
| QIPPGAKVEFGNKEIEVPPGKELMIFNGHIMTQDDMEDMMKNMPDGMEMYRYKVEDNKGKIDKVRRMRMKPS [r1_304_TrROS] | < -1 kcal/mol | -0.102 ± 0.57 kcal/mol |
| SAGGNIKITDIEMEPMNMPRKNEDGKEKPRPMWQFKVRIRDDGKPIAEVPFTSMDDMRNAVKKLLKKSAGGS [r8_21_TrROS] | -0.182 ± 0.39 kcal/mol | -0.0964 ± 0.26 kcal/mol |
